The text below walks through data of publication PMC4794788, “Cell‐free synthesis of isotopically labelled peptide ligands for the functional characterization of G protein‐coupled receptors” (FEBS Open Bio, 2015).

Entries after “also recorded” stand apart in the source; their conditions may differ.

Assay [1] has as its target T1, human complement 5a receptor (C5aR) (Homo sapiens, UniProt P21730).
T1 construct: 10x His (N); FLAG (N); StrepII (C); made in house; host or cells: Sf9 insect cells (recombinant baculovirus, pOET5 / flashBAC); membrane preparation
T1 sequence (P21730 1-350): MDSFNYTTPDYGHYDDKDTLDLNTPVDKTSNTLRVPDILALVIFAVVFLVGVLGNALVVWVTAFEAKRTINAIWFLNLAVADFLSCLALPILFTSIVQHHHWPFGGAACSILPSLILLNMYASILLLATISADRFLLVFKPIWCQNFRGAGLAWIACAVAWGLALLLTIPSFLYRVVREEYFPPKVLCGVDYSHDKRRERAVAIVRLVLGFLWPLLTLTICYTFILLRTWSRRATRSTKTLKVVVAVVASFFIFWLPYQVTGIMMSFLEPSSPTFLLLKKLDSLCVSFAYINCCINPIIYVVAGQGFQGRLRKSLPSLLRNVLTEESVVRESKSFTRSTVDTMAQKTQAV
Description: Specific binding of [^3H]‐C5a^CF to C5aR (optimization of translation and assay conditions). How it is done:
For the cell‐free synthesis of radioligands one amino acid was replaced with a tritiated variant depending on its abundance in the respective ligand. Complement 5a was produced in the presence of 1 μM (FM)/2.1 μM (RM) L‐[2,3‐^3H]‐proline (specific activity 55 Ci·mmol^−1, Perkin Elmer, Boston, USA). […] The cell‐free reaction was initiated omitting the labelled amino acid and incubated at 30 °C, 100 rpm for 3 h. The reaction mix was removed from the D‐tube™ dialyzer and incubated with 0.2 mL Ni‐NTA magnetic agarose beads suspension (Qiagen) per mL reaction mix for 10 min to remove undesired side products translated with endogenously present amino acids from the S30 extract. The reaction mix was removed from the magnetic beads, supplemented with 0.25 mM L‐histidine to account for potential losses in the IMAC (immobilized metal ion affinity chromatography) step and the tritium‐labelled amino acid. The feeding mix was discarded and replaced with a fresh mix containing the labelled amino acid. Reactions were incubated at 30 °C in a water bath under constant shaking overnight.
For purification of tritium‐labelled complement 5a ([^3H]‐C5a^CF), reaction and feeding mixes were pooled and applied to a 1 mL HisTrap FF column (GE Healthcare) equilibrated in buffer C^C5a using a peristaltic pump. The column was washed with 4 CV buffer C1^C5a, 4 CV buffer C2^C5a and eluted in 4 CV buffer D^C5a. […] Buffer exchange to buffers C^C5a or C^ET−1 was performed by repeated concentration and dilution in a 3 kDa MWCO concentrator (Amicon) and protein concentration was calculated using the specific activity of incorporated [^3H]‐Pro or [^3H]‐Phe residues.
The complement 5a receptor was coproduced with Gαi2 in Sf9 insect cells. The cDNA encoding the human complement 5a receptor flanked by an N‐terminal 10x His and FLAG tag and a C‐terminal StrepII tag was cloned into the pOET5 transfer vector (Oxford Expression Technologies, Oxford, UK). pOET5 contains two expression cassettes, the receptor is expressed under the control of a polyhedron promoter; Gαi2 expression is regulated by a p10 promoter. […]

A further assay deals with C5aR. The settings on record: C5aR in native human tissues; literature comparison; cited from earlier work. How it is done: Table 1 Binding parameters of cell‐free synthesized radioligands | column: Literature KD [nM] || As the interaction between C5a and its receptor is mainly mediated by the disulphide bridged core region of C5a (residues 21–55, 22) and the C‐terminal region (especially Arg^74 30) the N‐terminal hexa‐histidine tag was not removed. The cell‐free synthesized ligand binds to the complement 5a receptor with a dissociation constant of 1.18 ± 0.27 nM (Fig. 4A), which corresponds to values determined by Gerard and Gerard for C5aR in native human tissues (1 nM 31, Table 1). Competition experiments with the unlabelled small molecule inverse agonist NDT 9513727 and the peptide antagonist H2N‐ChaW resu ...

B1: [^3H]‐C5a^CF: cell‐free‐synthesized tritium‐labelled complement 5a with N‐terminal hexa‐histidine tag; contains three proline residues (protein, UniProt P01031 678-751, looked up)
C5a anaphylatoxin: TLQKKIEEIAAKYKHSVVKKCCYDGACVNNDETCEQRAARISLGPRCIKAFTECCVVASQLRANISHKDMQLGR
modifications: C5a anaphylatoxin tritium label
What is called Kd is the equilibrium constant for the complex coming apart. Take B1: the “Specific binding to the C5aR” value in assay [1] (first translation trials, produced with DsbA and IMAC purified, no pretranslation step) was “only low and nonsignificant binding to the C5aR; also recorded: specific binding is low and nonsignificant”; in assay [1] (pretranslation step plus NaCl in assay and wash buffer), “further increases the detected specific binding”; in assay [1] (with pretranslation step to remove endogenous proline), “binding specifically to the C5aR and displaying low nonspecific background; also recorded: strongly increased (dark grey bar) and statistically significant”. For the same molecule, the Kd on C5aR was 1 nM.
